Measurements from the supplement of paper PMC10899765.

Tested on: MCF10A
Test: 5+ nucleoli phenotype percent effect (relative to siNT 0% and siKIF11 100%); higher = more cells with five or more nucleoli
Conditions: 20 nM; 72 h
Protocol: (§1)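 After 72 h, cells were fixed and stained with Hoechst and anti-fibrillarin, and nucleoli per nucleus were counted with CellProfiler. Values are plate-adjusted percent effect for the one-nucleolus and 5+ nucleoli phenotypes, normalised to siNT (0%) and to the positive controls siNOL11 or siKIF11 (100%), as the mean of biological triplicates. Percent viability is the nuclei count relative to siNT.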

Sequence | 5+ nucleoli phenotype percent effect
UGAGGAUGGAUAGCAAGGAAGCC [hsa-miR-3605-5p] | 12%
CAUCAUCGUCUCAAAUGAGUCU [hsa-miR-136-3p] | 22.1%
AGCCAGGCUCUGAAGGGAAAGU [hsa-miR-4755-3p] | 3.33%
GAAAACGACAAUGACUUUUGCA [hsa-miR-548ad] | 40.5%
AGGGGACUGGUUAAUAGAACUA [hsa-miR-4652-5p] | -5.22%
UGGCUGCUUCCCUUGGUCUCCAG [hsa-miR-6762-3p] | -10.9%
ACUGGACUAGGAGUCAGAAGG [hsa-miR-378i] | -12.9%
AGUCAUUGGAGGGUUUGAGCAG [hsa-miR-616-3p] | -20%
UCUGGCCUUGACUUGACUCUUU [hsa-miR-3922-3p] | 6.7%
AGUGAAUGAUGGGUUCUGACC [hsa-miR-1257] | -35.8%
CUAAUAGUAUCUACCACAAUAAA [hsa-miR-633] | 35.1%
CCGGUUCCAGUCCCUGGAG [hsa-miR-6070] | -6.27%
GGCUUUCUAGUCUCAGCUCUCC [hsa-miR-3160-5p] | 38.5%
AGGGAAGGAGGCUUGGUCUUAG [hsa-miR-4747-5p] | 11.6%
AAAGGAAAGUGUAUCCUAAAAG [hsa-miR-651-3p] | 37%
UGAUUGUCCAAACGCAAUUCU [hsa-miR-219-5p] | 14.5%
GUGAGGCGGGGCCAGGAGGGUGUGU [hsa-miR-6765-5p] | 16%
AAGCCCUGUCUCCUCCCAUCU [hsa-miR-6779-3p] | -41.9%
UUUUCAACUCUAAUGGGAGAGA [hsa-miR-1305] | -6.71%
UUCAUUUGCCUCCCAGCCUACA [hsa-miR-664b-3p] | -29.2%
UGCAUCAGGCCAGAAGACAUGAG [hsa-miR-4711-5p] | -36.8%
UGAGGGACAGAUGCCAGAAGCA [hsa-miR-3126-5p] | -33.3%
UGAGGGAGUGGAUUGUAUG [hsa-miR-6130] | -15.2%
GCCCAGGACUUUGUGCGGGGUG [hsa-miR-6840-3p] | 16.2%
CUUAGCAGGUUGUAUUAUCAUU [hsa-miR-374b-3p] | -9.55%
AUGUAGGGCUAAAAGCCAUGGG [hsa-miR-135b-3p] | 10.5%
UCAGCUGGCCCUCAUUUC [hsa-miR-1207-3p] | -48.5%
AUAACAUUGUAAAGCGCUUCUUUCG [hsa-miR-3143] | 49%
AAGUGCUGUCAUAGCUGAGGUC [hsa-miR-512-3p] | 45.1%
GUGAGGAGGGGCUGGCAGGGAC [hsa-miR-6858-5p] | 7.04%

Tested on: MCF10A
Test: one-nucleolus phenotype percent effect (relative to siNT 0% and siNOL11 100%); higher = more cells with one nucleolus (ribosome biogenesis inhibition)
Conditions: 20 nM; 72 h
Protocol: as §1

Sequence | one-nucleolus phenotype percent effect
AUCCCUUGCAGGGGCUGUUGGGU [hsa-miR-623] | -13.1%
UAACCCUGUCCUCUCCCUCCCAG [hsa-miR-6732-3p] | -9.42%
ACUGGGGGCUUUCGGGCUCUGCGU [hsa-miR-637] | 50.5%
GGGAGAAGGGUCGGGGC [hsa-miR-4516] | -25.4%
AAGGGGCAGGGACGGGUGGCCC [hsa-miR-6743-5p] | 1.94%
UUAGAACGUUUUAGGGUCAAAU [hsa-miR-5687] | -12.4%
CCUGAUCCCACAGCCCACCU [hsa-miR-3151-3p] | -1.47%
GGGCGCCUGUGAUCCCAAC [hsa-miR-566] | -9.02%
AUAAUACAUGGUUAACCUCUUU [hsa-miR-655] | 4.84%
UGUGAUAUCAUGGUUCCUGGGA [hsa-miR-3689e] | 4.57%
UGGAGUUAAGGGUUGCUUGGAGA [hsa-miR-4653-3p] | 47.6%
CCCGCAGGUGAGAUGAGGGCU [hsa-miR-6886-5p] | 9.43%
UCGGAUCCGUCUGAGCUUGGCU [hsa-miR-127-3p] | 14.4%
UAUCCAGCUUGUUACUAUAUGC [hsa-miR-5586-5p] | -0.119%
GGGCGACAAAGCAAGACUCUUUCUU [hsa-miR-1273a] | 6.41%
AAAGACCGUGACUACUUUUGCA [hsa-miR-548ao-3p] | 18.2%
GGAUGGUUGGGGGCGGUCGGCGU [hsa-miR-8069] | 28.5%
ACUGCCCUAAGUGCUCCUUCUGG [hsa-miR-18a-3p] | -2.39%
CAAAAACCGCAAUUACUUUUGCA [hsa-miR-548z] | 0.602%
UACCCUGUAGAACCGAAUUUGUG [hsa-miR-10b-5p] | 25.8%

Sequence | one-nucleolus phenotype percent effect
UUGCUAGUUGCACUCCUCUCUGU [hsa-miR-449c-3p] | 7.23%
ACUUGGGCACUGAAACAAUGUCC [hsa-miR-635] | -11.4%
AGGUAGACUGGGAUUUGUUGUU [hsa-miR-3529-5p] | 27.4%
GCAGAGUGCAAACAAUUUUGAC [hsa-miR-759] | -27.2%
UUAAUGCUAAUCGUGAUAGGGGU [hsa-miR-155-5p] | 8.74%
CAGGCCAUAUUGUGCUGCCUCA [hsa-miR-15a-3p] | 23%
GUGGGUAGGGUUUGGGGGAGAGCG [hsa-miR-1229-5p] | -23.1%
AGAGAUGAAGCGGGGGGGCG [hsa-miR-6088] | -6.8%
ACUGCUGAGCUAGCACUUCCCG [hsa-miR-93-3p] | 0.758%
UGAGGAUGGAUAGCAAGGAAGCC [hsa-miR-3605-5p] | -3.45%
CAUCAUCGUCUCAAAUGAGUCU [hsa-miR-136-3p] | -9.83%
AGCCAGGCUCUGAAGGGAAAGU [hsa-miR-4755-3p] | 7.85%
GAAAACGACAAUGACUUUUGCA [hsa-miR-548ad] | -29.2%
AGGGGACUGGUUAAUAGAACUA [hsa-miR-4652-5p] | 47.2%
UGGCUGCUUCCCUUGGUCUCCAG [hsa-miR-6762-3p] | 44%
ACUGGACUAGGAGUCAGAAGG [hsa-miR-378i] | 4.21%
AGUCAUUGGAGGGUUUGAGCAG [hsa-miR-616-3p] | 10.7%
UCUGGCCUUGACUUGACUCUUU [hsa-miR-3922-3p] | -2.7%
AGUGAAUGAUGGGUUCUGACC [hsa-miR-1257] | 45.3%
CUAAUAGUAUCUACCACAAUAAA [hsa-miR-633] | -23.4%

Sequence | one-nucleolus phenotype percent effect
CCGGUUCCAGUCCCUGGAG [hsa-miR-6070] | 16.9%
GGCUUUCUAGUCUCAGCUCUCC [hsa-miR-3160-5p] | -16.4%
AGGGAAGGAGGCUUGGUCUUAG [hsa-miR-4747-5p] | -5.76%
AAAGGAAAGUGUAUCCUAAAAG [hsa-miR-651-3p] | -19.5%
UGAUUGUCCAAACGCAAUUCU [hsa-miR-219-5p] | -9.06%
GUGAGGCGGGGCCAGGAGGGUGUGU [hsa-miR-6765-5p] | -21.4%
AAGCCCUGUCUCCUCCCAUCU [hsa-miR-6779-3p] | 9.83%
UUUUCAACUCUAAUGGGAGAGA [hsa-miR-1305] | 9.11%
UUCAUUUGCCUCCCAGCCUACA [hsa-miR-664b-3p] | 39.1%
UGCAUCAGGCCAGAAGACAUGAG [hsa-miR-4711-5p] | 12.6%
UGAGGGACAGAUGCCAGAAGCA [hsa-miR-3126-5p] | 40%
UGAGGGAGUGGAUUGUAUG [hsa-miR-6130] | -1.2%
GCCCAGGACUUUGUGCGGGGUG [hsa-miR-6840-3p] | -16.9%
CUUAGCAGGUUGUAUUAUCAUU [hsa-miR-374b-3p] | -6.79%
AUGUAGGGCUAAAAGCCAUGGG [hsa-miR-135b-3p] | 6.54%
UCAGCUGGCCCUCAUUUC [hsa-miR-1207-3p] | 65%
AUAACAUUGUAAAGCGCUUCUUUCG [hsa-miR-3143] | -38.3%
AAGUGCUGUCAUAGCUGAGGUC [hsa-miR-512-3p] | -17.8%
GUGAGGAGGGGCUGGCAGGGAC [hsa-miR-6858-5p] | -12.2%
